± gives the standard deviation of the averaged measurements.
Assay: total protein half-life in vivo (active degradation + dilution); higher = more stable protein
[1] = E. coli NCM3722 delta-clpP delta-lon delta-hslV, growth: N-lim chemostat, doubling time 6 h
[2] = E. coli NCM3722 delta-hslV, growth: N-lim chemostat, doubling time 6 h
[3] = E. coli NCM3722 delta-lon, growth: N-lim chemostat, doubling time 6 h
[4] = E. coli NCM3722 delta-smpB, growth: N-lim chemostat, doubling time 6 h
[5] = wild type E. coli NCM3722, growth: C-lim chemostat, doubling time 3 h
[6] = wild type E. coli NCM3722, growth: C-lim chemostat, doubling time 6 h
[7] = wild type E. coli NCM3722, growth: C-lim chemostat, doubling time 12 h
[8] = wild type E. coli NCM3722, growth: N-lim chemostat, doubling time 6 h
[9] = wild type E. coli NCM3722, growth: N-lim chemostat, doubling time 12 h
[10] = wild type E. coli NCM3722, growth: P-lim chemostat, doubling time 6 h
[11] = wild type E. coli NCM3722, growth: P-lim chemostat, doubling time 12 h
[12] = E. coli NCM3722 delta-clpP, growth: N-lim chemostat, doubling time 6 h

| Substance | total protein half-life in vivo [1] | total protein half-life in vivo [2] | total protein half-life in vivo [3] | total protein half-life in vivo [4] | total protein half-life in vivo [5] | total protein half-life in vivo [6] | total protein half-life in vivo [7] | total protein half-life in vivo [8] | total protein half-life in vivo [9] | total protein half-life in vivo [10] | total protein half-life in vivo [11] | total protein half-life in vivo [12] |
| --- | --- | --- | --- | --- | --- | --- | --- | --- | --- | --- | --- | --- |
| P76578 | 6.589 ± 0.03 h | 6.54 ± 0.12 h | 6.81 ± 0.67 h | 6.09 ± 0.11 h | 3.08 ± 0.13 h | 6.17 ± 0.39 h | 13.4 ± 0.82 h | 6.17 ± 0.06 h | 13.1 ± 0.32 h | 6.16 ± 0.085 h | 12.7 ± 0.14 h | – |
| MRTFSGKRSTLALAIAGVTAMSGFMAMPEARAEGFIDDSTLTGGIYYWQRERDRKDVTDGDKYKTNLSHSTWNANLDFQSGYAADMFGLDIAAFTAIEMAENGDSSHPNEIAFSKSNKAYDEDWSGDKSGISLYKAAAKFKYGPVWARAGYIQPTGQTLLAPHWSFMPGTYQGAEAGANFDYGDAGALSFSYMWTNEYKAPWHLEMDEFYQNDKTTKVDYLHSFGAKYDFKNNFVLEAAFGQAEGYIDQYFAKASYKFDIAGSPLTTSYQFYGTRDKVDDRSVNDLYDGTAWLQALTFGYRAADVVDLRLEGTWVKADGQQGYFLQRMTPTYASSNGRLDIWWDNRSDFNANGEKAVFFGAMYDLKNWNLPGFAIGASYVYAWDAKPATWQSNPDAYYDKNRTIEESAYSLDAVYTIQDGRAKGTMFKLHFTEYDNHSDIPSWGGGYGNIFQDERDVKFMVIAPFTIF | – | – | – | – | 1.45 h | 2.07 h | 2.36 h | – | – | – | – | – |
| MKRKRLFLLASLLPMFALAGNKWNTTLPGGNMQFQGVIIAETCRIEAGDKQMTVNMGQISSNRFHAVGEDSAPVPFVIHLRECSTVVSERVGVAFHGVADGKNPDVLSVGEGPGIATNIGVALFDDEGNLVPINRPPANWKRLYSGSTSLHFIAKYRATGRRVTGGIANAQAWFSLTYQ | – | – | – | 5.7 ± 0.54 h | 2.67 h | 6.06 h | – | – | – | – | – | – |
| MILLIDNYDSFTWNLYQYFCELGADVLVKRNDALTLADIDALKPQKIVISPGPCTPDEAGISLDVIRHYAGRLPILGVCLGHQAMAQAFGGKVVRAAKVMHGKTSPITHNGEGVFRGLANPLTVTRYHSLVVEPDSLPACFDVTAWSETREIMGIRHRQWDLEGVQFHPESILSEQGHQLLANFLHR | 5.21 ± 0.68 h | 3.72 ± 1.2 h | 4.94 ± 0.68 h | 4.35 ± 0.22 h | 3.31 ± 0.049 h | 5.88 ± 0.4 h | 10 h | – | 8.41 ± 0.11 h | 6.18 ± 0.066 h | 12.9 ± 0.99 h | 5.02 h |
| MKFVDEASILVVAGDGGNGCVSFRREKYIPKGGPDGGDGGDGGDVWMEADENLNTLIDYRFEKSFRAERGQNGASRDCTGKRGKDVTIKVPVGTRVIDQGTGETMGDMTKHGQRLLVAKGGWHGLGNTRFKSSVNRTPRQKTNGTPGDKRELLLELMLLADVGMLGMPNAGKSTFIRAVSAAKPKVADYPFTTLVPSLGVVRMDNEKSFVVADIPGLIEGAAEGAGLGIRFLKHLERCRVLLHLIDIDPIDGTDPVENARIIISELEKYSQDLATKPRWLVFNKIDLLDKVEAEEKAKAIAEALGWEDKYYLISAASGLGVKDLCWDVMTFIIENPVVQAEEAKQPEKVEFMWDDYHRQQLEEIAEEDDEDWDDDWDEDDEEGVEFIYKR | 5.72 ± 1.1 h | 2.39 ± 0.18 h | 2.44 ± 0.097 h | 2.185 ± 0.021 h | 2.27 ± 0.1 h | 3.58 ± 0.14 h | 5.35 ± 0.73 h | 2.39 ± 0.11 h | 2.82 ± 0.035 h | 3.04 ± 0.22 h | 5.89 ± 0.39 h | 4.17 ± 0.15 h |
| MAIIPKNYARLESGYREKALKIYPWVCGRCSREFVYSNLRELTVHHIDHDHTNNPEDGSNWELLCLYCHDHEHSKYTEADQYGTTVIAGEDAQKDVGEAKYNPFADLKAMMNKKK [P0AAQ2] | 4.15 ± 1.2 h | 1.5 ± 0.031 h | 2.74 ± 0.48 h | 1.63 ± 0.71 h | 0.968 ± 0.29 h | 1.73 h | 2.42 h | 1.97 h | 1.54 h | 1.18 h | 3.1 ± 0.97 h | 1.71 ± 0.098 h |
| MNRWENIQLTHENRLAPRAYFFSYDSVAQARTFARETSSLFLPLSGQWNFHFFDHPLQVPEAFTSELMADWGHITVPAMWQMEGHGKLQYTDEGFPFPIDVPFVPSDNPTGAYQRIFTLSDGWQGKQTLIKFDGVETYFEVYVNGQYVGFSKGSRLTAEFDISAMVKTGDNLLCVRVMQWADSTYVEDQDMWWSAGIFRDVYLVGKHLTHINDFTVRTDFDEAYCDATLSCEVVLENLAASPVVTTLEYTLFDGERVVHSSAIDHLAIEKLTSASFAFTVEQPQQWSAESPYLYHLVMTLKDANGNVLEVVPQRVGFRDIKVRDGLFWINNRYVMLHGVNRHDNDHRKGRAVGMDRVEKDLQLMKQHNINSVRTAHYPNDPRFYELCDIYGLFVMAETDVESHGFANVGDISRITDDPQWEKVYVERIVRHIHAQKNHPSIIIWSLGNESGYGCNIRAMYHAAKALDDTRLVHYEEDRDAEVVDIISTMYTRVPLMNEFGEYPHPKPRIICEYAHAMGNGPGGLTEYQNVFYKHDCIQGHYVWEWCDHGIQAQDDHGNVWYKFGGDYGDYPNNYNFCLDGLIYSDQTPGPGLKEYKQVIAPVKIHARDLTRGELKVENKLWFTTLDDYTLHAEVRAEGETLATQQIKLRDVAPNSEAPLQITLPQLDAREAFLNITVTKDSRTRYSEAGHPIATYQFPLKENTAQPVPFAPNNARPLTLEDDRLSCTVRGYNFAITFSKMSGKPTSWQVNGESLLTREPKINFFKPMIDNHKQEYEGLWQPNHLQIMQEHLRDFAVEQSDGEVLIISRTVIAPPVFDFGMRCTYIWRIAADGQVNVALSGERYGDYPHIIPCIGFTMGINGEYDQVAYYGRGPGENYADSQQANIIDIWRSTVDAMFENYPFPQNNGNRQHVRWTALTNRHGNGLLVVPQRPINFSAWHYTQENIHAAQHCNELQRSDDITLNLDHQLLGLGSNSWGSEVLDSWRVWFRDFSYGFTLLPVSGGEATAQSLASYEFGAGFFSTNLHSENKQ | – | – | – | – | 3.17 ± 0.0082 h | 5.26 ± 0.23 h | 12.4 ± 2 h | – | – | – | – | – |
| MAQIFNFSSGPAMLPAEVLKQAQQELRDWNGLGTSVMEVSHRGKEFIQVAEEAEKDFRDLLNVPSNYKVLFCHGGGRGQFAAVPLNILGDKTTADYVDAGYWAASAIKEAKKYCTPNVFDAKVTVDGLRAVKPMREWQLSDNAAYMHYCPNETIDGIAIDETPDFGADVVVAADFSSTILSRPIDVSRYGVIYAGAQKNIGPAGLTIVIVREDLLGKANIACPSILDYSILNDNGSMFNTPPTFAWYLSGLVFKWLKANGGVAEMDKINQQKAELLYGVIDNSDFYRNDVAKANRSRMNVPFQLADSALDKLFLEESFAAGLHALKGHRVVGGMRASIYNAMPLEGVKALTDFMVEFERRHG | 5.23 ± 1.6 h | 3.6976 ± 0.003 h | 4.479 ± 0.022 h | 3.55 ± 0.13 h | 3.13 ± 0.2 h | 5.71 ± 0.44 h | 11.1 ± 2.7 h | 3.83 ± 0.23 h | 5.898 ± 0.048 h | 5.74 ± 0.69 h | 11.8 ± 0.42 h | 3.87 ± 0.14 h |

Source: the supplement of paper PMC11246515
